Source: publication PMC10515612, “Analytical Ultracentrifugation-Calibrated Anion-Exchange Chromatography for Sensitive and Intact Determination of Osteopontin in Infant Formula and Dairy Products” (Journal of Agricultural and Food Chemistry, 2023)
Values joined by “and” are separate entries in the source; they are usually repeats but may differ in a detail not shown here. Equal values may be shown once.

Molecular target: the molecule itself
Test: AUC; sedimentation velocity, interference optics, OPN 1 mg/mL, 20 °C, 50,000 rpm; buffer changed from 20 mM THAM (10 mM NaCl, pH 8.00) to 20 mM PBS

B1: Osteopontin (bovine milk osteopontin, in-house reference standard) (natural protein)
chain: not shown
modifications: phosphorylations (~1.7 kDa) and O-linked glycosylations (2.9 kDa) on the full-length form; sites not given
notes: Osteopontin, bovine, from milk; By MALDI-TOF the material also holds an N-terminal fragment (150 amino acids, ~19.8 kDa); The sample is a mixture of full-length OPN and an N-terminal fragment of about 150 residues; also called OPN; bovine OPN; source: high-purity OPN protein ingredient extracted and provided by Arla Foods Ingredients (Denmark)
- stoichiometry N: 4 and 8
